According to patent publication US20040018561:

Columns and labels:
[1] = tested on: N-2-[(7-methoxy-2-oxo-2H-chromen-4-yl)acetyl]-D-arginyl-L-prolyl-L-leucylglycyl-L-leucyl-3-[(2,4-dinitrophenyl)amino]-L-alanyl-L-alanyl-D-arginyl-D-alpha-glutamyl-D-argininamide
[2] = tested on: N-2-[(7-methoxy-2-oxo-2H-chromen-4-yl)acetyl]-D-arginyl-L-prolyl-L-leucylglycyl-6-(benzyloxy)-L-norleucyl-3-[(2,4-dinitrophenyl)amino]-L-alanyl-L-alanyl-D-arginyl-D-alpha-glutamyl-D-argininamide
[3] = tested on: N-2-[(7-methoxy-2-oxo-2H-chromen-4-yl)acetyl]-L-arginyl-L-prolyl-L-leucylglycyl-6-(benzyloxy)-L-norleucyl-3-[(2,4-dinitrophenyl)amino]-L-alanyl-L-alanyl-L-arginyl-L-alpha-glutamyl-L-argininamide
[4] = tested on: N-2-[(7-methoxy-2-oxo-2H-chromen-4-yl)acetyl]-L-arginyl-L-prolyl-L-leucylglycyl-L-leucyl-3-[(2,4-dinitrophenyl)amino]-L-alanyl-L-alanyl-L-arginyl-L-alpha-glutamyl-L-argininamide
[5] = tested on: N-2-[(7-methoxy-2-oxo-2H-chromen-4-yl)acetyl]-L-arginyl-L-prolyl-L-leucylglycyl-L-leucyl-3-[(2,4-dinitrophenyl)amino]-L-alanyl-L-alanyl-D-arginyl-D-alpha-glutamyl-D-argininamide
[6] = tested on: N-2-[(7-methoxy-2-oxo-2H-chromen-4-yl)acetyl]-D-arginyl-L-prolyl-L-leucylglycyl-6-phenoxy-L-norleucyl-3-[(2,4-dinitrophenyl)amino]-L-alanyl-L-alanyl-D-arginyl-D-alpha-glutamyl-D-argininamide

Chain of MMP-8 (chain, as listed by the source): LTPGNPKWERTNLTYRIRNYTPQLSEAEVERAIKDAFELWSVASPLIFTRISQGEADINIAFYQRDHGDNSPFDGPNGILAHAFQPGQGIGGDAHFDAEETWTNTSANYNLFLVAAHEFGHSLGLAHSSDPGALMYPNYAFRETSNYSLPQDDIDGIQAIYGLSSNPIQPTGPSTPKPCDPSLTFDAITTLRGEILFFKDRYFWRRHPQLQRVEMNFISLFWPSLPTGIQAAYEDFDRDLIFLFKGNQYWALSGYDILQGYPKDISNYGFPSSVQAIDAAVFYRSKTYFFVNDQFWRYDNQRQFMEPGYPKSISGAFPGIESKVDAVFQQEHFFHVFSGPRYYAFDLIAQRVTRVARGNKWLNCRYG
Chain of MMP-9 (chain, as listed by the source): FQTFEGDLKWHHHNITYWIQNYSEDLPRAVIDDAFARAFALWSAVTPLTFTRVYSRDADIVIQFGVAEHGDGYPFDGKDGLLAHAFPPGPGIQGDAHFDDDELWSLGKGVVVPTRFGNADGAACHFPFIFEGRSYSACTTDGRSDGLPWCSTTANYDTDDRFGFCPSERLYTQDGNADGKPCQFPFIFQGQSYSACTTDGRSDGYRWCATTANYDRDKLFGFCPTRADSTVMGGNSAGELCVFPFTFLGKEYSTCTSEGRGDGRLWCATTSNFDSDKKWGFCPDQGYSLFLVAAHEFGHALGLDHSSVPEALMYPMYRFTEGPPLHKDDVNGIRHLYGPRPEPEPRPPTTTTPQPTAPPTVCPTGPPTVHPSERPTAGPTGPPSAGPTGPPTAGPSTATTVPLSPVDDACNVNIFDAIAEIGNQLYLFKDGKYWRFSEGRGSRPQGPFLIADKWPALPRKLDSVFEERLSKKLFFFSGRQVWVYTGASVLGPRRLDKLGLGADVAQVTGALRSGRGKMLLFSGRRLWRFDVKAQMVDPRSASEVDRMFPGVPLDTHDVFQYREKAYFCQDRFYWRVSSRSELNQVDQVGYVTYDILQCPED
Chain of MMP-3 (chain, as listed by the source): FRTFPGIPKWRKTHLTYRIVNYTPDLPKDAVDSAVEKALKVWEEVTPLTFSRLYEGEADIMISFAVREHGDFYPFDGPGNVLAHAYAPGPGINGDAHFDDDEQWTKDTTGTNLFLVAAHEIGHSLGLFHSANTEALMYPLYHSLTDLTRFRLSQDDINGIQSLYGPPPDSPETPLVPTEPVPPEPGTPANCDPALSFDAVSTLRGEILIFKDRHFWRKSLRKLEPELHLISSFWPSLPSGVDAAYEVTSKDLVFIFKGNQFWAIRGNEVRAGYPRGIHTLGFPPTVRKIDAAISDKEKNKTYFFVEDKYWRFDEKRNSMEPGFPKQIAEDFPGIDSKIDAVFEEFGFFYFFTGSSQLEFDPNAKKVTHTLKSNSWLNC

MMP-3
Km [1]: 14 µM
kcat/Km [1]: 6300 M⁻¹ s⁻¹
Km [2]: 28.9 µM
kcat/Km [2]: 1600 M⁻¹ s⁻¹
Km [3]: 85.9 µM
kcat/Km [3]: 4800 M⁻¹ s⁻¹
Km [4]: 38.7 µM
kcat/Km [4]: 9800 M⁻¹ s⁻¹
Km [5]: 59.5 µM
kcat/Km [5]: 800 M⁻¹ s⁻¹
kcat/Km [6]: 0 M⁻¹ s⁻¹

MMP-8
Km [1]: 16.7 µM
kcat/Km [1]: 139000 M⁻¹ s⁻¹
Km [2]: 3.3 µM
kcat/Km [2]: 146000 M⁻¹ s⁻¹
Km [3]: 9.1 µM
kcat/Km [3]: 179000 M⁻¹ s⁻¹
Km [4]: 20.1 µM
kcat/Km [4]: 381000 M⁻¹ s⁻¹
Km [5]: 13.3 µM
kcat/Km [5]: 456000 M⁻¹ s⁻¹
Km [6]: 4.4 µM
kcat/Km [6]: 522000 M⁻¹ s⁻¹

MMP-9
Km [1]: 6.4 µM
kcat/Km [1]: 418000 M⁻¹ s⁻¹
Km [2]: 3.3 µM
kcat/Km [2]: 319000 M⁻¹ s⁻¹
Km [3]: 2.3 µM
kcat/Km [3]: 1.47e+06 M⁻¹ s⁻¹
Km [4]: 6.2 µM
kcat/Km [4]: 1.29e+06 M⁻¹ s⁻¹
Km [5]: 8.2 µM
kcat/Km [5]: 1.33e+06 M⁻¹ s⁻¹
Km [6]: 1.4 µM
kcat/Km [6]: 1.91e+06 M⁻¹ s⁻¹

MMP-13
Km [1]: 9 µM
kcat/Km [1]: 296000 M⁻¹ s⁻¹
Km [2]: 1.5 µM
kcat/Km [2]: 1.58e+06 M⁻¹ s⁻¹
Km [3]: 0.9 µM
kcat/Km [3]: 4.24e+06 M⁻¹ s⁻¹
Km [4]: 3.9 µM
kcat/Km [4]: 3.92e+06 M⁻¹ s⁻¹
Km [5]: 4.7 µM
kcat/Km [5]: 4.08e+06 M⁻¹ s⁻¹
Km [6]: 1.2 µM
kcat/Km [6]: 2.93e+06 M⁻¹ s⁻¹
